Experimental data taken from FireProtDB (doi:10.1021/bi00197a024).

Settings: Saccharomyces cerevisiae (strain ATCC 204508 / S288c), Thermal, DSC, Sodium phosphate 0.1 M, reversible: yes

Cytochrome c isoform 1 wild type, P00044, sequence (P00044 whole entry, canonical isoform): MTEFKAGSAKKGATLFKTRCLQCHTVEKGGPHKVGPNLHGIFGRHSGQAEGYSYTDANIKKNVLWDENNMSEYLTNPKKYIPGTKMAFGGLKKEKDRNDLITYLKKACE
Cytochrome c isoform 1 C108A, P00044, sequence (P00044 whole entry C108A, canonical isoform): as the sequence (P00044 whole entry, canonical isoform) above, with C108A counted along it

For Cytochrome c isoform 1 C108A, P00044, the Tm (pH 5, structure 1YCC) was 55.5 °C, the “unfolding enthalpy (calorimetric)” value (pH 5, structure 1YCC) was 68.9 kcal/mol and the “unfolding enthalpy (van 't Hoff)” value (pH 5, structure 1YCC) was 99.2 kcal/mol. The Tm (pH 6, structure 1YCC) was 56.2 °C, the “unfolding enthalpy (calorimetric)” value (pH 6, structure 1YCC) was 69.9 kcal/mol and the “unfolding enthalpy (van 't Hoff)” value (pH 6, structure 1YCC) was 104 kcal/mol.

In the case of “Cytochrome c isoform 1 wild type, P00044”, the Tm (pH 5) is reported as 47.4 °C, the “unfolding enthalpy (calorimetric)” value (pH 5) is reported as 58.3 kcal/mol and the “unfolding enthalpy (van 't Hoff)” value (pH 5) is reported as 82.2 kcal/mol. For the same substance, the Tm (pH 6) was 50.7 °C, the “unfolding enthalpy (calorimetric)” value (pH 6) was 64.5 kcal/mol and the “unfolding enthalpy (van 't Hoff)” value (pH 6) was 92.2 kcal/mol.
